Target: the molecule itself
Experiment: multi-angle light scattering

B1: arrestin-1 (protein)
chain: MAACGKTNKSHVIFKKVSRDKSVTIYLGKRDYVDHVSQVEPVDGVVLVDPELVKGKKVYVTLTCAFRYGQEDIDVMGLTFRRDLYFSRVQVYPPVGAMSVLTQLQESLLKKLGDNTYPFLLTFPDYLPCSVMLQPAPQDVGKSCGVDFEVKAFASDITDPEEDKIPKKSSVRLLIRKVQHAPPEMGPQPSAEASWQFFMSDKPLNLSVSLSKEIYFHGEPIPVTVTVTNNTDKVVKKIKVSVEQIANVVLYSSDYYVKPVASEETQEKVQPNSTLTKTLVLVPLLANNRERRGIALDGKIKHEDTNLASSTIIKEGIDRTVMGILVSYHIKVKLTVSGFLGELTSSEVATEVPFRLMHPQPEDPAKESVQDENLVFEEFARQNLKDTGENTEGKKDEDAGQDE
- Kd: 57.5 µM
